{
  "source": "ChEMBL document CHEMBL2074052",
  "about": "“Human organic anion transporters and human organic cation transporters mediate renal antiviral transport” (J Pharmacol Exp Ther, 2002)",
  "format_in_all_cases": "functional, cell-based",
  "key": {"[1]": {"substrate": "Nc1nc2c(ncn2COCCO)c(=O)[nH]1", "experiment": "(§1) TP_TRANSPORTER: uptake in OAT1-expressing S2 cells"}, "[2]": {"substrate": "Nc1nc(O)c2ncn(COC(CO)CO)c2n1", "experiment": "as §1"}, "[3]": {"substrate": "CC(C)[C@H](N)C(=O)OCCOCn1cnc2c(=O)[nH]c(N)nc21", "experiment": "TP_TRANSPORTER: uptake in OAT3-expressing S2 cells"}, "[4]": {"substrate": "Nc1nc2c(ncn2COCCO)c(=O)[nH]1", "experiment": "(§2) TP_TRANSPORTER: uptake in OCT1-expressing S2 cells"}, "[5]": {"substrate": "Nc1nc(O)c2ncn(COC(CO)CO)c2n1", "experiment": "as §2"}},
  "data": [
    {"protein": "Solute carrier family 22 member 6 (Homo sapiens) (protein) MAFNDLLQQVGGVGRFQQIQVTLVVLPLLLMASHNTLQNFTAAIPTHHCRPPADANLSKNGGLEVWLPRDRQGQPESCLRFTSPQWGLPFLNGTEANGTGATEPCTDGWIYDNSTFPSTIVTEWDLVCSHRALRQLAQSLYMVGVLLGAMVFGYLADRLGRRKVLILNYLQTAVSGTCAAFAPNFPIYCAFRLLSGMALAGISLNCMTLNVEWMPIHTRACVGTLIGYVYSLGQFLLAGVAYAVPHWRHLQLLVSAPFFAFFIYSWFFIESARWHSSSGRLDLTLRALQRVARINGKREEGAKLSMEVLRASLQKELTMGKGQASAMELLRCPTLRHLFLCLSMLWFATSFAYYGLVMDLQGFGVSIYLIQVIFGAVDLPAKLVGFLVINSLGRRPAQMAALLLAGICILLNGVIPQDQSIVRTSLAVLGKGCLAASFNCIFLYTGELYPTMIRQTGMGMGSTMARVGSIVSPLVSMTAELYPSMPLFIYGAVPVAASAVTVLLPETLGQPLPDTVQDLESRWAPTQKEAGIYPRKGKQTRQQQEHQKYMVPLQASAQEKNGL", "values": [
      {"measurement": "Km", "setting": "[1]", "value": 342, "unit": "µM"},
      {"measurement": "Km", "setting": "[2]", "value": 896, "unit": "µM"}
    ]},
    {"protein": "Organic anion transporter 3 (Homo sapiens) (protein) MTFSEILDRVGSMGHFQFLHVAILGLPILNMANHNLLQIFTAATPVHHCRPPHNASTGPWVLPMGPNGKPERCLRFVHPPNASLPNDTQRAMEPCLDGWVYNSTKDSIVTEWDLVCNSNKLKEMAQSIFMAGILIGGLVLGDLSDRFGRRPILTCSYLLLAASGSGAAFSPTFPIYMVFRFLCGFGISGITLSTVILNVEWVPTRMRAIMSTALGYCYTFGQFILPGLAYAIPQWRWLQLTVSIPFFVFFLSSWWTPESIRWLVLSGKSSKALKILRRVAVFNGKKEEGERLSLEELKLNLQKEISLAKAKYTASDLFRIPMLRRMTFCLSLAWFATGFAYYSLAMGVEEFGVNLYILQIIFGGVDVPAKFITILSLSYLGRHTTQAAALLLAGGAILALTFVPLDLQTVRTVLAVFGKGCLSSSFSCLFLYTSELYPTVIRQTGMGVSNLWTRVGSMVSPLVKITGEVQPFIPNIIYGITALLGGSAALFLPETLNQPLPETIEDLENWSLRAKKPKQEPEVEKASQRIPLQPHGPGLGSS", "values": [
      {"measurement": "Km", "setting": "[3]", "value": 57.9, "unit": "µM"}
    ]},
    {"protein": "Solute carrier family 22 member 1 (Homo sapiens) (protein) MPTVDDILEQVGESGWFQKQAFLILCLLSAAFAPICVGIVFLGFTPDHHCQSPGVAELSQRCGWSPAEELNYTVPGLGPAGEAFLGQCRRYEVDWNQSALSCVDPLASLATNRSHLPLGPCQDGWVYDTPGSSIVTEFNLVCADSWKLDLFQSCLNAGFLFGSLGVGYFADRFGRKLCLLGTVLVNAVSGVLMAFSPNYMSMLLFRLLQGLVSKGNWMAGYTLITEFVGSGSRRTVAIMYQMAFTVGLVALTGLAYALPHWRWLQLAVSLPTFLFLLYYWCVPESPRWLLSQKRNTEAIKIMDHIAQKNGKLPPADLKMLSLEEDVTEKLSPSFADLFRTPRLRKRTFILMYLWFTDSVLYQGLILHMGATSGNLYLDFLYSALVEIPGAFIALITIDRVGRIYPMAMSNLLAGAACLVMIFISPDLHWLNIIIMCVGRMGITIAIQMICLVNAELYPTFVRNLGVMVCSSLCDIGGIITPFIVFRLREVWQALPLILFAVLGLLAAGVTLLLPETKGVALPETMKDAENLGRKAKPKENTIYLKVQTSEPSGT", "values": [
      {"measurement": "Km", "setting": "[4]", "value": 151, "unit": "µM"},
      {"measurement": "Km", "setting": "[5]", "value": 516, "unit": "µM"}
    ]}
  ]
}
